The values below come from PMC12416549 (2024).

B1: E83Q (designed binder)
chain: SMEEEVEKAAKEYEKKKKEAIEKHLEKLKAKDKEAAERFLKELEEAAKEYAKDEAKTMSEEEAKRRAKKYKEKVLLSELSEEQQKEIKEAEEKLVRTILKYVEEAAK
B2: K31L (designed binder)
chain: SMEEEVEKAAKEYEKKKKEAIEKHLEKLKALDKEAAERFLKELEEAAKEYAKDEAKTMSEEEAKRRAKKYKEKVLLSELSEEEQKEIKEAEEKLVRTILKYVEEAAK
B3: E34G (designed binder)
chain: SMEEEVEKAAKEYEKKKKEAIEKHLEKLKAKDKGAAERFLKELEEAAKEYAKDEAKTMSEEEAKRRAKKYKEKVLLSELSEEEQKEIKEAEEKLVRTILKYVEEAAK
B4: Y70D (designed binder)
chain: SMEEEVEKAAKEYEKKKKEAIEKHLEKLKAKDKEAAERFLKELEEAAKEYAKDEAKTMSEEEAKRRAKKDKEKVLLSELSEEEQKEIKEAEEKLVRTILKYVEEAAK
B5: R38Q (designed binder)
chain: SMEEEVEKAAKEYEKKKKEAIEKHLEKLKAKDKEAAEQFLKELEEAAKEYAKDEAKTMSEEEAKRRAKKYKEKVLLSELSEEEQKEIKEAEEKLVRTILKYVEEAAK
B6: K8I (designed binder)
chain: SMEEEVEIAAKEYEKKKKEAIEKHLEKLKAKDKEAAERFLKELEEAAKEYAKDEAKTMSEEEAKRRAKKYKEKVLLSELSEEEQKEIKEAEEKLVRTILKYVEEAAK
B7: K41E (designed binder)
chain: SMEEEVEKAAKEYEKKKKEAIEKHLEKLKAKDKEAAERFLEELEEAAKEYAKDEAKTMSEEEAKRRAKKYKEKVLLSELSEEEQKEIKEAEEKLVRTILKYVEEAAK
B8: L94I (designed binder)
chain: SMEEEVEKAAKEYEKKKKEAIEKHLEKLKAKDKEAAERFLKELEEAAKEYAKDEAKTMSEEEAKRRAKKYKEKVLLSELSEEEQKEIKEAEEKIVRTILKYVEEAAK
B9: K56G (designed binder)
chain: SMEEEVEKAAKEYEKKKKEAIEKHLEKLKAKDKEAAERFLKELEEAAKEYAKDEAGTMSEEEAKRRAKKYKEKVLLSELSEEEQKEIKEAEEKLVRTILKYVEEAAK
B10: H24M (designed binder)
chain: SMEEEVEKAAKEYEKKKKEAIEKMLEKLKAKDKEAAERFLKELEEAAKEYAKDEAKTMSEEEAKRRAKKYKEKVLLSELSEEEQKEIKEAEEKLVRTILKYVEEAAK
B11: L25A (designed binder)
chain: SMEEEVEKAAKEYEKKKKEAIEKHAEKLKAKDKEAAERFLKELEEAAKEYAKDEAKTMSEEEAKRRAKKYKEKVLLSELSEEEQKEIKEAEEKLVRTILKYVEEAAK
B12: E83N (designed binder)
chain: SMEEEVEKAAKEYEKKKKEAIEKHLEKLKAKDKEAAERFLKELEEAAKEYAKDEAKTMSEEEAKRRAKKYKEKVLLSELSEENQKEIKEAEEKLVRTILKYVEEAAK
B13: K31C (designed binder)
chain: SMEEEVEKAAKEYEKKKKEAIEKHLEKLKACDKEAAERFLKELEEAAKEYAKDEAKTMSEEEAKRRAKKYKEKVLLSELSEEEQKEIKEAEEKLVRTILKYVEEAAK
B14: E49M (designed binder)
chain: SMEEEVEKAAKEYEKKKKEAIEKHLEKLKAKDKEAAERFLKELEEAAKMYAKDEAKTMSEEEAKRRAKKYKEKVLLSELSEEEQKEIKEAEEKLVRTILKYVEEAAK
B15: Y101P (designed binder)
chain: SMEEEVEKAAKEYEKKKKEAIEKHLEKLKAKDKEAAERFLKELEEAAKEYAKDEAKTMSEEEAKRRAKKYKEKVLLSELSEEEQKEIKEAEEKLVRTILKPVEEAAK
B16: Y13H (designed binder)
chain: SMEEEVEKAAKEHEKKKKEAIEKHLEKLKAKDKEAAERFLKELEEAAKEYAKDEAKTMSEEEAKRRAKKYKEKVLLSELSEEEQKEIKEAEEKLVRTILKYVEEAAK
B17: A63R (designed binder)
chain: SMEEEVEKAAKEYEKKKKEAIEKHLEKLKAKDKEAAERFLKELEEAAKEYAKDEAKTMSEEERKRRAKKYKEKVLLSELSEEEQKEIKEAEEKLVRTILKYVEEAAK
B18: A63G (designed binder)
chain: SMEEEVEKAAKEYEKKKKEAIEKHLEKLKAKDKEAAERFLKELEEAAKEYAKDEAKTMSEEEGKRRAKKYKEKVLLSELSEEEQKEIKEAEEKLVRTILKYVEEAAK
B19: D53S (designed binder)
chain: SMEEEVEKAAKEYEKKKKEAIEKHLEKLKAKDKEAAERFLKELEEAAKEYAKSEAKTMSEEEAKRRAKKYKEKVLLSELSEEEQKEIKEAEEKLVRTILKYVEEAAK
B20: S59M (designed binder)
chain: SMEEEVEKAAKEYEKKKKEAIEKHLEKLKAKDKEAAERFLKELEEAAKEYAKDEAKTMMEEEAKRRAKKYKEKVLLSELSEEEQKEIKEAEEKLVRTILKYVEEAAK
B21: K73G (designed binder)
chain: SMEEEVEKAAKEYEKKKKEAIEKHLEKLKAKDKEAAERFLKELEEAAKEYAKDEAKTMSEEEAKRRAKKYKEGVLLSELSEEEQKEIKEAEEKLVRTILKYVEEAAK
B22: E91A (designed binder)
chain: SMEEEVEKAAKEYEKKKKEAIEKHLEKLKAKDKEAAERFLKELEEAAKEYAKDEAKTMSEEEAKRRAKKYKEKVLLSELSEEEQKEIKEAAEKLVRTILKYVEEAAK
B23: R66M (designed binder)
chain: SMEEEVEKAAKEYEKKKKEAIEKHLEKLKAKDKEAAERFLKELEEAAKEYAKDEAKTMSEEEAKRMAKKYKEKVLLSELSEEEQKEIKEAEEKLVRTILKYVEEAAK
B24: Y70G (designed binder)
chain: SMEEEVEKAAKEYEKKKKEAIEKHLEKLKAKDKEAAERFLKELEEAAKEYAKDEAKTMSEEEAKRRAKKGKEKVLLSELSEEEQKEIKEAEEKLVRTILKYVEEAAK
B25: K8S (designed binder)
chain: SMEEEVESAAKEYEKKKKEAIEKHLEKLKAKDKEAAERFLKELEEAAKEYAKDEAKTMSEEEAKRRAKKYKEKVLLSELSEEEQKEIKEAEEKLVRTILKYVEEAAK
B26: E81F (designed binder)
chain: SMEEEVEKAAKEYEKKKKEAIEKHLEKLKAKDKEAAERFLKELEEAAKEYAKDEAKTMSEEEAKRRAKKYKEKVLLSELSFEEQKEIKEAEEKLVRTILKYVEEAAK
B27: E45D (designed binder)
chain: SMEEEVEKAAKEYEKKKKEAIEKHLEKLKAKDKEAAERFLKELEDAAKEYAKDEAKTMSEEEAKRRAKKYKEKVLLSELSEEEQKEIKEAEEKLVRTILKYVEEAAK
B28: V6S (designed binder)
chain: SMEEESEKAAKEYEKKKKEAIEKHLEKLKAKDKEAAERFLKELEEAAKEYAKDEAKTMSEEEAKRRAKKYKEKVLLSELSEEEQKEIKEAEEKLVRTILKYVEEAAK
B29: K33M (designed binder)
chain: SMEEEVEKAAKEYEKKKKEAIEKHLEKLKAKDMEAAERFLKELEEAAKEYAKDEAKTMSEEEAKRRAKKYKEKVLLSELSEEEQKEIKEAEEKLVRTILKYVEEAAK
B30: K73E (designed binder)
chain: SMEEEVEKAAKEYEKKKKEAIEKHLEKLKAKDKEAAERFLKELEEAAKEYAKDEAKTMSEEEAKRRAKKYKEEVLLSELSEEEQKEIKEAEEKLVRTILKYVEEAAK
B31: E61Q (designed binder)
chain: SMEEEVEKAAKEYEKKKKEAIEKHLEKLKAKDKEAAERFLKELEEAAKEYAKDEAKTMSEQEAKRRAKKYKEKVLLSELSEEEQKEIKEAEEKLVRTILKYVEEAAK
B32: K107M (designed binder)
chain: SMEEEVEKAAKEYEKKKKEAIEKHLEKLKAKDKEAAERFLKELEEAAKEYAKDEAKTMSEEEAKRRAKKYKEKVLLSELSEEEQKEIKEAEEKLVRTILKYVEEAAM
B33: I98G (designed binder)
chain: SMEEEVEKAAKEYEKKKKEAIEKHLEKLKAKDKEAAERFLKELEEAAKEYAKDEAKTMSEEEAKRRAKKYKEKVLLSELSEEEQKEIKEAEEKLVRTGLKYVEEAAK

In this experiment the target is T1, TNFR1 (Homo sapiens, UniProt P19438).
T1 chain: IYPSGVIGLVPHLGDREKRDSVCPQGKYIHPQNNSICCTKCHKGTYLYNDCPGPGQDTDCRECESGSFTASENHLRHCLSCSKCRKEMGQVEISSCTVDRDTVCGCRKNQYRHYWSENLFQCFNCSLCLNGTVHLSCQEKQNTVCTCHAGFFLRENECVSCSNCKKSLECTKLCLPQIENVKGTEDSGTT
In words: yeast display SC50.
As to B1, the “apparent Kd (screen)” value came to 0.593 nM.

For B2, the “apparent Kd (screen)” value stood at 0.49 nM.

Take B3: the “apparent Kd (screen)” value was determined as 0.405 nM.

As for B4, the “apparent Kd (screen)” value is 5.84 nM.

In the case of B5, the “apparent Kd (screen)” value is 1.86 nM.

B6: the “apparent Kd (screen)” value is 1.05 nM.

As to B7, the “apparent Kd (screen)” value was determined as 0.49 nM.

Regarding B8, the “apparent Kd (screen)” value is 0.405 nM.

For the molecule B9, the “apparent Kd (screen)” value came to 7.07 nM.

Turning to B10, the “apparent Kd (screen)” value came out at 0.49 nM.

With B11, the “apparent Kd (screen)” value worked out at 0.593 nM.

As for B12, the “apparent Kd (screen)” value is 0.79 nM.

Consider B13, for which the “apparent Kd (screen)” value was 1.27 nM.

Take B14: the “apparent Kd (screen)” value was determined as 12.5 nM.

Regarding B15, the “apparent Kd (screen)” value was determined as 0.405 nM.

In the case of B16, the “apparent Kd (screen)” value was determined as 0.446 nM.

Regarding B17, the “apparent Kd (screen)” value was 6.43 nM.

Turning to B18, the “apparent Kd (screen)” value was 11.4 nM.

On to B19, for which the “apparent Kd (screen)” value amounted to 0.446 nM.

For B20, the “apparent Kd (screen)” value is 1.69 nM.

With B21, the “apparent Kd (screen)” value is 22.2 nM.

For the molecule B22, the “apparent Kd (screen)” value worked out at 7.07 nM.

As to B23, the “apparent Kd (screen)” value was determined as 26.9 nM.

For the molecule B24, the “apparent Kd (screen)” value came out at 3.99 nM.

Turning to B25, the “apparent Kd (screen)” value was 1.4 nM.

Turning to B26, the “apparent Kd (screen)” value stood at 0.593 nM.

Take B27: the “apparent Kd (screen)” value turned out to be 0.539 nM.

Take B28: the “apparent Kd (screen)” value amounted to 1.4 nM.

Take B29: the “apparent Kd (screen)” value came out at 0.593 nM.

For B30, the “apparent Kd (screen)” value came to 11.4 nM.

Regarding B31, the “apparent Kd (screen)” value was found to be 1.4 nM.

As to B32, the “apparent Kd (screen)” value amounted to 1.4 nM.

B33: the “apparent Kd (screen)” value was 6.43 nM.
